Measured values as given in US20100022454A1 (Novo Nordisk, published 2010).
Residue numbers refer to the chain shown, from its start. Names may count otherwise.

Assays:
[1] = biological target: prolactin receptor (PRLR) on T47D cells; assay: cell-based or functional assay
[2] = biological target: T1, hPRLR on stably transfected BaF/3 cells (human, UniProt P16471 25-622); assay: cell-based or functional assay
T1 sequence (looked up): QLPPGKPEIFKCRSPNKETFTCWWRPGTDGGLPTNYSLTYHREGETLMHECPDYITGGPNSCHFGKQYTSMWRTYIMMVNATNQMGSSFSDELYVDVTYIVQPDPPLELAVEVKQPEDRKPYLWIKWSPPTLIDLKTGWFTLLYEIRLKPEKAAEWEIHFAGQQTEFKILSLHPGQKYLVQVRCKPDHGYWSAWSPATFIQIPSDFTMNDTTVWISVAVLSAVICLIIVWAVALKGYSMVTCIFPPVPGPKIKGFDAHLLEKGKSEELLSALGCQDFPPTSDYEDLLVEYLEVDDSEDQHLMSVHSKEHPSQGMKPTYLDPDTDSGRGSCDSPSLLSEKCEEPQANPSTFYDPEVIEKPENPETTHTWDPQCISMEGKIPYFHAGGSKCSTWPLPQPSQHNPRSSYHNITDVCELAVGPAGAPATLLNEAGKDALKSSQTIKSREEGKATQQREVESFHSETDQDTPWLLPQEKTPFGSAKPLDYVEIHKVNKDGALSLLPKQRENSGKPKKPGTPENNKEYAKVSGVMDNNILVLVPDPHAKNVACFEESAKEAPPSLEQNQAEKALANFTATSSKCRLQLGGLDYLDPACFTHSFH

B1: PRL G129R (ligand)
chain: LPICPGGAARCQVTLRDLFDRAVVLSHYIHNLSSEMFSEFDKRYTHGRGFITKAINSCHTSSLATPEDKEQAQQMNQKDFLSLIVSILRSWNEPLYHLVTEVRGMQEAPEAILSKAVEIEEQTKRLLERMELIVSQVHPETKENEIYPVWSGLPSLQMADEESRLSAYYNLLHCLRRDSHKIDNYLKLLKCRIIHNNNC
Apparent IC50 (nM) at 20 nM PRL; inhibition of PRL induced STAT3 phosphorylation, phospho-STAT3 ELISA on T47D cells [1]: 69 nM

B2: PRL S61A G129R (ligand)
chain: B1 chain with S61A
Apparent IC50 (nM) at 20 nM PRL; inhibition of PRL induced STAT3 phosphorylation, phospho-STAT3 ELISA on T47D cells [1]: 18 nM

B3: human prolactin (PRL), wildtype (ligand)
chain: B1 chain with R129G
EC50 (nM) of PRL in the presence of 1 µM PRL S61A G129R, BaF3 proliferation assay (AlamarBlue), n = 9 [2]: 40 nM
EC50 (nM), BaF3 proliferation assay (AlamarBlue), n = 31 [2]: 0.15 nM
